Measured values: patent US20110165624A1

Biological target: native Ocr protein (bacteriophage T7 gene 0.3 product) as produced from pMCSG7 (bacteriophage T7)
Experiment: size exclusion chromatography, Superdex 75; predicted monomer 16.6 kDa, dimer 33.3 kDa

“native Ocr protein (bacteriophage T7 gene 0.3 product) as produced from pMCSG7” was tested, and the calculated molecular weight on size exclusion column was 35 kDa.
